According to patent US7838495B2, “Compositions and methods of use of EPB1, and ErbB3 binding protein” (University of Maryland, Baltimore, priority 2007, dated 2010):

Key:
[1] = tested on: LNCaP cells; assay: LNCaP xenografts in SCID mice; format: in vivo
Protocol: In Vivo Studies in SCID Mice: Male SCID mice, 4-6 weeks of age, were purchased from the National Cancer Institute (Frederick, Md.). Animals were housed in a pathogen-free environment under controlled conditions of light and humidity and received food and water ad libitum. LNCaP cells were grown in complete medium and 800 μg/ml of G418 until 80% confluent. Cells were scraped into phosphate-buffered saline (PBS), collected by centrifugation, and suspended in Matrigel™ (10 mg/ml) (Collaborative Research, Waltham, Mass.) at 1×10^7 cells/ml. Each mouse received s.c. injections at one site on each flank with 100 μl of cell suspension. Tumors were measured three times a week with calipers, and tumor volumes were calculated by the formula 0.5236×r1^2×r2 (r1<r2). The animal protocols were approved by the Institutional Animal Care and Use Committee at the University of Maryland.
After sacrifice, tumors were excised and fixed in 10% buffered neutral formalin. Sections of formalin-fixed, paraffin-embedded tissues were cut to 5 μm. Slides were stained with an EPB1 antibody (Upstate) diluted 1:50 using the standard avidin-biotin method (Vector Labs, Burlinghame, Calif.). Peroxidase activity was localized by the diaminobenzidine tetrachloride peroxidase reaction with Harris hematoxylin as a counterstain.

[2] = tested on: MCF-7 cells; assay: HRG-induced MAPK and AKT phosphorylation in MCF-7 transfectants; format: cell-based, human; conditions: EBP1 overexpressing MCF-7 cells
Protocol: FIG. 11A-C. Ebp1 affects HRG-induced downstream signaling pathways. Serum starved MCF-7 vector control (CMV) or EBP1 transfected cells (Ebp1) cells were stimulated with HRG (20 ng/ml) for the indicated times. Cells lysates were blotted with antibodies to (A) phosphor MAPK and total MAPK or (B) phospho-Akt or total AKT. Data are representative of three experiments. […] Eight hours after transfection, cells were refed with media with 2% serum and the indicated concentrations of HRG. Growth was assessed by MTT assay 3 days later. Data are representative of two experiments.
2.5. Western blot analysis. Total cell extracts were prepared by direct lysis of cells with lysis buffer [50 mM Tris-HCl (pH 7.4), 1 mM EDTA, 250 mM NaCl, 1% Triton X-100, 0.5 mM DTT, and 1× Complete™ protease inhibitor]. Protein concentrations were measured using a detergent compatible kit (Bio-Rad). Proteins (30 lg per well) were resolved by SDS-PAGE, transferred to PVDF membranes, and immunoblotted as described. […] Images were quantified using IMAGE-J software (NIH). […] Relative cell numbers were determined 4 days later using a Promega Proliferation Reagent as per manufacturer's instructions with absorbance being read at 490 nm using a Dynex plate reader. […] Data were analyzed using a two-tailed Students t-test and a p <0.05 was deemed statistically significant. […]

B1: EBP1: ErbB3 binding protein (SEQ ID NO: 2), AR corepressor, here ectopically expressed in cancer cells by stable transfection of an expression plasmid (protein, listed as Homo sapiens)
chain: MSGEDEQQEQTIAEDLVVTKYKMGGDIANRVLRSLVEASSSGVSVLSLCEKGDAMIMEETGKIFKKEKEMKKGIAFPTSISVNNCVCHFSPLKSDQDYILKEGDLVKIDLGVHVDGFIANVAHTFVVDVAQGTQVTGRKADVIKAAHLCAEAALRLVKPGNQNTQVTEAWNKVAHSFNCTPIEGMLSHQLKQHVIDGEKTIIQNPTDQQKKDHEKAEFEVHEVYAVDVLVSSGEGKAKDAGQRTTIYKRDPSKQYGLKMKTSRAFFSEVERRFDAMPFTLRAFEDEKKARMGVVECAKHELLQPFNVLYEKEGEFVAQFKFTVLLMPNGPMRITSGPFEPDLYKSEMEVQDAELKALLQSSASRKTQKKKKKKASKTAENATSGETLEENEAGD
modifications: FLAG tag
[1]; EBP1-transfected LNCaP s.c. in SCID mice (vector controls 35%)
  inoculation sites with tumors on day 20: 10%
[1]; EBP1-transfected LNCaP s.c. in SCID mice (vector more than 85%), p=0.04
  sites that developed tumors at the end of the study: less than 40%
[1]; EPB1-transfected LNCaP in SCID mice (vector 1214±168), p=0.0003
  average tumor volume at the end of the study: 268±70 mm^3
[1]; EPB1 transfectants vs vector, all time points, p=0.0001
  tumor growth rate: slower
[2]
  basal MAPK phosphorylation: constitutively phosphorylated
